Series [1] deals with the molecule itself. As to the kind of experiment: cell-based or functional assay.
The target in series [2] is T1, human PBGS variant F12L (human, UniProt P13716 1-330).
T1 construct: Hexamer in the crystal structure (PDB 1PV8); tetramer/hexamer mix in sedimentation equilibrium; also called F12L hexamer
T1 chain: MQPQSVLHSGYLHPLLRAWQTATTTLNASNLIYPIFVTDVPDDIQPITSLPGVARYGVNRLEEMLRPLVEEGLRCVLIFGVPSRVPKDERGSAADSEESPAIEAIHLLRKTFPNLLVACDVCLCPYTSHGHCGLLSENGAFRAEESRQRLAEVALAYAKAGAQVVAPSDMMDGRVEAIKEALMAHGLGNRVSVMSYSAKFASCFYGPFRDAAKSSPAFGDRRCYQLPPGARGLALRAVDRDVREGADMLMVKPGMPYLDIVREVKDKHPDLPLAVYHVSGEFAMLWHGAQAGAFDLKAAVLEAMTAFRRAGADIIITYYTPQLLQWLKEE
As to the kind of experiment: coexpression, Q-Sepharose chromatography.

Series [3] concerns the molecule itself. As to the kind of experiment: purification and dialysis against magnesium.

B1: pea (Pisum sativum) porphobilinogen synthase (enzyme, Pisum sativum (pea), UniProt P30124 69-398, looked up)
chain: SLPIQRRPRRNRRSPALRSAFQETTLSPANFVYPLFIHEGEEDTPIGAMPGCYRLGWRHGLLEEVAKARDVGVNSVVLFPKIPDALKTPTGDEAYNEDGLVPRSIRLLKDKYPDLIIYTDVALDPYSSDGHDGIVREDGVIMNDETVHQLCKQAVAQARAGADVVSPSDMMDGRVGAMRVALDAEGFQHVSIMSYTAKYASSFYGPFREALDSNPRFGDKKTYQMNPANYREALTEMREDESEGADILLVKPGLPYLDIIRLLRDNSPLPIAAYQVSGEYSMIKAGGALKMIDEEKVMMESLLCLRRAGADIILTYFALQAARTLCGEKR
Consider B1, for which, in series [1], the “EC50 (read off the curve), specific activity against pea PBGS subunit concentration” value was about 30 nM.

B2: wild type human porphobilinogen synthase (PBGS), parent construct N59/C162A (enzyme)
chain: MQPQSVLHSGYFHPLLRAWQTATTTLNASNLIYPIFVTDVPDDIQPITSLPGVARYGVNRLEEMLRPLVEEGLRCVLIFGVPSRVPKDERGSAADSEESPAIEAIHLLRKTFPNLLVACDVCLCPYTSHGHCGLLSENGAFRAEESRQRLAEVALAYAKAGAQVVAPSDMMDGRVEAIKEALMAHGLGNRVSVMSYSAKFASCFYGPFRDAAKSSPAFGDRRCYQLPPGARGLALRAVDRDVREGADMLMVKPGMPYLDIVREVKDKHPDLPLAVYHVSGEFAMLWHGAQAGAFDLKAAVLEAMTAFRRAGADIIITYYTPQLLQWLKEE
notes: Homo-oligomer, predominantly an octamer; also called Wt; WT
As to B2, the binding result in series [2] is “binds”.

B3: Pseudomonas aeruginosa porphobilinogen synthase (enzyme)
chain: MSFTPANRAYPYTRLRRNRRDDFSRRLVRENVLTVDDLILPVFVLDGVNQRESIPSMPGVERLSIDQLLIEAEEWVALGIPALALFPVTPVEKKSLDAAEAYNPEGIAQRATRALRERFPELGIITDVALDPFTTHGQDGILDDDGYVLNDVSIDVLVRQALSHAEAGAQVVAPSDMMDGRIGAIREALESAGHTNVRIMAYSAKYASAYYGPFRDAVGSASNLGKGNKATYQMDPANSDEALHEVAADLAEGADMVMVKPGMPYLDIVRRVKDEFRAPTFVYQVSGEYAMHMGAIQNGWLAESVILESLTAFKRAGADGILTYFAKQAAEQLRRGR
notes: Purified as a dimer without magnesium and converted to the octamer by dialysis against magnesium; also called P. aeruginosa PBGS
For the molecule B3, the binding result in series [3] is “binds”.

For the origin of these results see US20090048324A1 (FOX CHASE CANCER CENTER, published 2009).
